Test results as given in IntAct's records for PubMed 15070733.

How the values were obtained:
fbw1b_human FBXW11 = fbw1b_human FBXW11 (UniProt Q9UKB1)
fbw1a_human BTRC = fbw1a_human BTRC (UniProt Q9Y297)
Sequence of fbw1a_human BTRC (Q9Y297 whole entry): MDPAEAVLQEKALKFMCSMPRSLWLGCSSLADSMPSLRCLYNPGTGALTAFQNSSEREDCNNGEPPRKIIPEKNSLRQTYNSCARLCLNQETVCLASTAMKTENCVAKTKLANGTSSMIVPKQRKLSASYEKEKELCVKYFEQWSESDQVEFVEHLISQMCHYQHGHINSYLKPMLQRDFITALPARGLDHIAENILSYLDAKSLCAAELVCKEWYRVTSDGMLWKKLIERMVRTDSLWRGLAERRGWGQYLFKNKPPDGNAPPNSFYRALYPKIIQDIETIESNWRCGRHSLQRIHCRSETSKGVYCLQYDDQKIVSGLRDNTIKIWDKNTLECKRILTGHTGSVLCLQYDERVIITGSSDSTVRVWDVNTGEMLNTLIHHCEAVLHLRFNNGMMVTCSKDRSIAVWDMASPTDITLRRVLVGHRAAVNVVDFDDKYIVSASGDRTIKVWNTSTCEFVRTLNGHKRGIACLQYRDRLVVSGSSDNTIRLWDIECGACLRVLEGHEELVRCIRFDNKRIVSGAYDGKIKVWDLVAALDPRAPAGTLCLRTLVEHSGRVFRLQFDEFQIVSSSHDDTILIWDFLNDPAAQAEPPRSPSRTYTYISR

Sequence of fbw1b_human FBXW11 (Q9UKB1 whole entry): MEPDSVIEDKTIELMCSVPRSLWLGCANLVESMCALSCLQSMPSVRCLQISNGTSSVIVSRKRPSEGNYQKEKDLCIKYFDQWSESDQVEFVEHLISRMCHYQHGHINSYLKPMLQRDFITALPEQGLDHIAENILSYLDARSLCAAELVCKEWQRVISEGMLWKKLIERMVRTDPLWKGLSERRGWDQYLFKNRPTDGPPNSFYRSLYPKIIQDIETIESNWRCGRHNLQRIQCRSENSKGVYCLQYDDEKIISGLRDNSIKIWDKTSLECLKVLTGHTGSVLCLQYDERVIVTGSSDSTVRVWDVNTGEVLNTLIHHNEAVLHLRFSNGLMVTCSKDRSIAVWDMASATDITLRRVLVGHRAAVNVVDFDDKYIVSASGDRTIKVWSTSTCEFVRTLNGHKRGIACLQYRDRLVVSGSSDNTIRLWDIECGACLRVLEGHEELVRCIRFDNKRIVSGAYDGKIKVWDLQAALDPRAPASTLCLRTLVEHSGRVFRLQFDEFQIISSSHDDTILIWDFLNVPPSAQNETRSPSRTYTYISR

effect of a mutation on the interaction (fbw1b_human FBXW11)	effect of a mutation on the interaction (fbw1a_human BTRC)	Substance
	decreasing interaction	Wee1-like protein kinase (Homo sapiens), P30291 S121A
	decreasing interaction	Wee1-like protein kinase (Homo sapiens), P30291 S123A

Further lines, the substance ahead of its results:

Substance	effect of a mutation on the interaction (fbw1b_human FBXW11)	effect of a mutation on the interaction (fbw1a_human BTRC)
Wee1-like protein kinase (Homo sapiens), P30291 D52A;S123A	decreasing interaction	
Wee1-like protein kinase (Homo sapiens), P30291 E116A;E117A		decreasing interaction
Wee1-like protein kinase (Homo sapiens), P30291 S53A;S123A	decreasing interaction	
